# Measured values: patent US9187525B2, “Methods of treating ophthalmic diseases using NPR-B agonists” (Shire Orphan Therapies GmbH, dated 2015)
# Numbered stars: 1 amine (or outer) side, 2 acyl side, 3 side chain; on linkers, the order of the positions; unused ones are H or OH. Square brackets hold non-standard residues; d marks the D form. Ends that are not written are not given here. * marks the point of attachment. cDR = (S)-2-((S)-3-(carboxymethyl)-2-oxopiperazin-1-yl)-5-guanidinopentanoic acid, N=C(N)NCCC[C@@H](C(=O)[*:2])N1CCN([*:1])[C@@H](CC(=O)[*:3])C1=O; Bhp = (2S,4R)-4-(benzyloxy)pyrrolidine-2-carboxylic acid, O=C([C@@H]1C[C@@H](OCc2ccccc2)CN1[*:1])[*:2]; ctb = (S)-2-amino-3-(tert-butylthio)propanoic acid, CC(C)(C)SC[C@@H](N[*:1])C(=O)[*:2]; Npl = (S)-4-methyl-2-(propylamino)pentanoic acid, CCCN([C@@H](CC(C)C)C(=O)[*:2])[*:1]; Sni = (S)-nipecotic acid, O=C([C@H]1CCCN([*:1])C1)[*:2]; Phe(4-Cl) = N[C@@H](Cc1ccc(Cl)cc1)C(=O)O; Phe(4-Me) = Cc1ccc(C[C@H](N)C(=O)O)cc1; Hyp = O=C(O)[C@@H]1C[C@@H](O)CN1; NMeF = CN[C@@H](Cc1ccccc1)C(=O)O; dAoc(2) = CCCCCC[C@@H](N)C(=O)O; Aoc(2) = CCCCCC[C@H](N)C(=O)O; NMeL = CN[C@@H](CC(C)C)C(=O)O; dNle = CCCC[C@@H](N)C(=O)O; dOrn = NCCC[C@@H](N)C(=O)O; dNva = CCC[C@@H](N)C(=O)O; dPip = O=C(O)[C@H]1CCCCN1; Octanoyl = CCCCCCCC(=O)*; dAbu = CC[C@@H](N)C(=O)O; dDap = NC[C@@H](N)C(=O)O; Hexanoyl = CCCCCC(=O)*; asn = not defined here; leu = not defined here; nle = not defined here; Occ = octanoic acid
# T1: natriuretic peptide receptor-B (human)
# T1 chain: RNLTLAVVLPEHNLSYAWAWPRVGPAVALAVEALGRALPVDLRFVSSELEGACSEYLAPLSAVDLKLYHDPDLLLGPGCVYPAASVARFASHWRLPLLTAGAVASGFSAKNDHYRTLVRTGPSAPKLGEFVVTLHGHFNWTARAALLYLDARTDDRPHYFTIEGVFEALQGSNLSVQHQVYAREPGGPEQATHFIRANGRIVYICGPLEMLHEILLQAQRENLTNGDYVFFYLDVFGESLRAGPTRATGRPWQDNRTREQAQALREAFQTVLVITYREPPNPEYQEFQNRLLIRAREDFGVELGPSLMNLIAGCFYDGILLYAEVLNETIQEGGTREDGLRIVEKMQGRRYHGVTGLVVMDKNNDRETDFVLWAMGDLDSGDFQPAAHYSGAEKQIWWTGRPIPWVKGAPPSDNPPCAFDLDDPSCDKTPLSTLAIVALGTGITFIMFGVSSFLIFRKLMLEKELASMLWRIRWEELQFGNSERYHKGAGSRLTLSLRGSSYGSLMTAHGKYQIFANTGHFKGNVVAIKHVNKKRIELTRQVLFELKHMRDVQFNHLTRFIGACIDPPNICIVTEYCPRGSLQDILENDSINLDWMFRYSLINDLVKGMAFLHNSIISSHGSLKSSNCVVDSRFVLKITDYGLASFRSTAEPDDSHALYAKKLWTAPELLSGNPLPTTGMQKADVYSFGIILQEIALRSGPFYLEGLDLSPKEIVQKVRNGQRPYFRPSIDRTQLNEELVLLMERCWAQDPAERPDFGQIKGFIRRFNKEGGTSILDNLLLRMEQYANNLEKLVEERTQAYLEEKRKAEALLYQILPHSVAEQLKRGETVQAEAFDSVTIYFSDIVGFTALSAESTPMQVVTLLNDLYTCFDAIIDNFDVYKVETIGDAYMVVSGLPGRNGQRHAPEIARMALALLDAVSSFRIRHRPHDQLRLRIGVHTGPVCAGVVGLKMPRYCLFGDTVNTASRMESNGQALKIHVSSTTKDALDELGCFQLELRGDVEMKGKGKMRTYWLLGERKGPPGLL
# B1: JAL-1029 (peptide)
# peptide: Octanoyl-[dA]F[ctb]L[Hyp]LDRI-NH2
# B2: JAL-1044 (peptide)
# peptide: Octanoyl-[dA]F[dNle]L[Hyp][NMeL]DRI-NH2
# B3: JAL-1042 (peptide)
# peptide: Octanoyl-[dA]F[dL]L[Hyp][NMeL]DRI-NH2
# B4: JAL-1022 (peptide)
# peptide: Octanoyl-[Sni][NMeF][dNle]LPLDRI-NH2
# B5: JAL-1020 (peptide)
# peptide: Octanoyl-[dA]F[dDap]LPLDRI-NH2
# B6: JAL-1019 (peptide)
# peptide: Octanoyl-[dA]F[dAbu]LPLDRI-NH2
# B7: JAL-1025 (peptide)
# peptide: Octanoyl-[dA]F[dNle]L[Hyp]LDRI-NH2
# B8: JAL-0539 (peptide)
# peptide: Hexanoyl-G[dA]FGLKLDRISG-NH2
# B9: JAL-1051 (peptide)
# peptide: Octanoyl-[dA][Phe(4-Me)][dL]L[Hyp]LDRI-NH2
# B10: JAL-1039 (peptide)
# peptide: Octanoyl-[dA]F[dL]LP[NMeL]DRI-NH2
# B11: JAL-1024 (peptide)
# peptide: Octanoyl-[Sni]F[dNle]L[Hyp]LDRI-NH2
# B12: JAL-1018 (peptide)
# peptide: Octanoyl-[dA]F[dM]LPLDRI-NH2
# B13: JAL-1060 (peptide)
# peptide: Octanoyl-[dA]F[dK]L[Hyp][NMeL]DRI-NH2
# B14: JAL-1048 (peptide)
# peptide: Octanoyl-[dA]F[dD]L[Hyp]LDRI-NH2
# B15: JAL-1021 (peptide)
# peptide: Octanoyl-[Sni]F[dNle]LPLDRI-NH2
# B16: JAL-1035 (peptide)
# peptide: Octanoyl-[dPip]FGLPLDRI-NH2
# B17: JAL-1050 (peptide)
# peptide: Octanoyl-[dA][Phe(4-Cl)][dL]L[Hyp]LDRI-NH2
# B18: JAL-1032 (peptide)
# peptide: Octanoyl-[dA]F[dH]LPLDRI-NH2
# B19: JAL-0538 (peptide)
# peptide: Hexanoyl-G[dA]FGLKLDRISA-NH2
# B20: JAL-1026 (peptide)
# peptide: Octanoyl-[dA]F[dL]L[Hyp]LDRI-NH2
# B21: JAL-1038 (peptide)
# peptide: Octanoyl-[dA]FGL[Bhp]LDRI-NH2
# B22: JAL-1041 (peptide)
# peptide: Octanoyl-[Sni]F[dL]L[Hyp][NMeL]DRI-NH2
# B23: JAL-1031 (peptide)
# peptide: Octanoyl-[dA]F[dR]LPLDRI-NH2
# B24: JAL-1061 (peptide)
# peptide: Octanoyl-[dA]F[dOrn]L[Hyp][NMeL]DRI-NH2
# B25: JAL-1053 (peptide)
# peptide: Octanoyl-[dP]F[dL]L[Hyp]LDRI-NH2
# B26: JAL-1054 (peptide)
# peptide: Octanoyl-[dPip]F[dL]L[Hyp]LDRI-NH2
# B27: JAL-1075 (peptide)
# peptide: Octanoyl-[dA]F[dR]LP[NMeL]DRI-NH2
# B28: JAL-1017 (peptide)
# peptide: [Occ]AF[asn]LPLDRI-NH2
# modifications: not fully specified (residue 2); printed as Occ-ala-Phe-asn-Leu-Pro-Leu-Asp-Arg-Ile-NH2; reading uncertain
# B29: JAL-1033 (peptide)
# peptide: Ac-[Aoc(2)][dA][dA]FGLPLDRI-NH2
# B30: JAL-1040 (peptide)
# peptide: Octanoyl-[Sni]F[dL]LP[NMeL]DRI-NH2
# B31: JAL-1015 (peptide)
# peptide: [Occ][Sni]FGL[Hyp][NMeL]DRI-NH2
# B32: JAL-1065 (peptide)
# peptide: Octanoyl-[dA]F[dK]LP[NMeL]DRI-NH2
# B33: JAL-1047 (peptide)
# peptide: Octanoyl-[dA]F[dR]L[Hyp]LDRI-NH2
# B34: JAL-0535 (peptide)
# peptide: Hexanoyl-S[dA]FGLKLDRISS-NH2
# B35: JAL-0536 (peptide)
# peptide: Hexanoyl-A[dA]FGLKLDRISA-NH2
# B36: JAL-1016 (peptide)
# peptide: [Occ]AFGL[Hyp][NMeL]DRI-NH2
# modifications: not fully specified (residue 2); printed as Occ-ala-Phe-Gly-Leu-Hyp-Nml-Asp-Arg-Ile-
# B37: JAL-1028 (peptide)
# peptide: Octanoyl-[dA]F[dF]L[Hyp]LDRI-NH2
# B38: JAL-1037 (peptide)
# peptide: Octanoyl-[dA]FGLPL[cDR]I-NH2
# B39: JAL-1013 (peptide)
# peptide: [Occ]AF[leu]LPLDRI-NH2
# modifications: not fully specified (residue 2); printed as Occ-ala-Phe-leu-Leu-Pro-Leu-Asp-Arg-Ile-NH2; reading uncertain
# B40: JAL-1045 (peptide)
# peptide: Octanoyl-[dA]FGLP[Npl]DRI-NH2
# B41: JAL-1052 (peptide)
# peptide: Octanoyl-[dA][NMeF][dL]L[Hyp]LDRI-NH2
# B42: JAL-1043 (peptide)
# peptide: Octanoyl-[dA][Phe(4-Cl)][dL]L[Hyp][NMeL]DRI-NH2
# B43: JAL-1014 (peptide)
# peptide: [Occ]AF[nle]LPLDRI-NH2
# modifications: not fully specified (residue 2); printed as Occ-ala-Phe-nle-Leu-Pro-Leu-Asp-Arg-Ile-NH2; reading uncertain
# B44: JAL-1068 (peptide)
# peptide: Octanoyl-[dA]F[dK]LP[NMeL]ARI-NH2
# B45: JAL-1034 (peptide)
# peptide: Ac-[dAoc(2)][dA][dA]FGLPLDRI-NH2
# B46: JAL-1030 (peptide)
# peptide: Octanoyl-[dA]F[dK]LPLDRI-NH2
# B47: JAL-1027 (peptide)
# peptide: Octanoyl-[dA]F[dNva]L[Hyp]LDRI-NH2
# Target: T1, natriuretic peptide receptor-B
# Test: cell-based or functional assay
row,Binder,"EC50 group, cGMP in GTM-3 cells [µM]"
1,B1,≤ 5
2,B2,≤ 1
3,B3,≤ 1
4,B4,≤ 5
5,B5,≤ 5
6,B6,≤ 5
7,B7,≤ 5
8,B8,≤ 5
9,B9,≤ 5
10,B10,≤ 1
11,B11,≤ 1
12,B12,≤ 5
13,B13,≤ 1
14,B14,≤ 15
15,B15,≤ 5
16,B16,≤ 15
17,B17,≤ 1
18,B18,≤ 5
19,B19,≤ 5
20,B20,≤ 5
21,B21,≤ 15
22,B22,≤ 1
23,B23,≤ 5
24,B24,≤ 1

row,Binder,"EC50 group, cGMP in GTM-3 cells [µM]"
1,B25,≤ 1
2,B26,≤ 1
3,B27,≤ 5
4,B28,≤ 5
5,B29,≤ 5
6,B30,≤ 1
7,B31,≤ 5
8,B32,≤ 5
9,B33,≤ 1
10,B34,≤ 15
11,B35,≤ 5
12,B36,≤ 5
13,B37,≤ 5
14,B38,≤ 15
15,B39,≤ 5
16,B40,≤ 15
17,B41,≤ 1
18,B42,≤ 1
19,B43,≤ 5
20,B44,≤ 15
21,B45,≤ 5
22,B46,≤ 5
23,B47,≤ 5
